# Test results as given in US20210246195A1 (CZ BIOHUB SF, published 2021).
# Like-named read-outs stand apart in the source and are kept apart here.
# T1: Ara h 1 (purified natural peanut allergen) (Arachis hypogaea, UniProt P43238 26-626)
# T1 construct: mature; bought natural protein; also called natural Ara h 1; NA-AH1-1
# T1 sequence (looked up): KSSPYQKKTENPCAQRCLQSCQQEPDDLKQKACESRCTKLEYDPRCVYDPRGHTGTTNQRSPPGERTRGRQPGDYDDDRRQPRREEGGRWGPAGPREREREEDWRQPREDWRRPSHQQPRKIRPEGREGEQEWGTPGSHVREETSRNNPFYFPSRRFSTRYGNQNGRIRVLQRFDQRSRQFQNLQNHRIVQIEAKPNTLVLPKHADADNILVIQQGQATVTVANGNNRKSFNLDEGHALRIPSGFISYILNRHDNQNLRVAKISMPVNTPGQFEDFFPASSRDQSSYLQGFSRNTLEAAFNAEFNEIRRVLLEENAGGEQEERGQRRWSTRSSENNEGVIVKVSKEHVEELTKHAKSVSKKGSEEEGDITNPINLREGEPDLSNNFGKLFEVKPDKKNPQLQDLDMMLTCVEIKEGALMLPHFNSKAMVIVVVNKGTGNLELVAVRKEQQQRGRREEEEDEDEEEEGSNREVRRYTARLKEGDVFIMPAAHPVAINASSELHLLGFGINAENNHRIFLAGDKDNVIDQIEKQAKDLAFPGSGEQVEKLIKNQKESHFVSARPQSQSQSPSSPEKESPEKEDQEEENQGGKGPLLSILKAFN
# T2: purified recombinant allergen Aspergillus fumigatus 1 (rAsp f 1) (Aspergillus fumigatus, UniProt P67875 28-176)
# T2 sequence: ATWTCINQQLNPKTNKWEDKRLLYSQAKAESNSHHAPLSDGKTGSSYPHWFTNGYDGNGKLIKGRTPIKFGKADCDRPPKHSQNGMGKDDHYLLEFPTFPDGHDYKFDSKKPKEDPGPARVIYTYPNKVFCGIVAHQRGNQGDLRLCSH
# Key:
# [1] = target: T3, Ara h 3 (purified natural peanut allergen) (Arachis hypogaea); test: BLI, scatter plot of KDs; the diamond lies on the axis line labelled >10^-7
# T3 construct: mature; bought natural protein; also called natural Ara h 3; NA-AH3-1
# [2] = target: T3, Ara h 3 (purified natural peanut …); test: BLI, antibody on anti-human IgG Fc sensors, Ara h 3 as analyte, top 128 nM
# BSA [3] = target: T4, BSA (UniProt P02769 25-607); test: indirect ELISA, OD heat map
# T4 construct: also called bovine serum albumin; immobilized BSA
# [4] = target: T1, Ara h 1 (purified natural peanut …); test: indirect ELISA, OD heat map
# [5] = target: T3, Ara h 3 (purified natural peanut …); test: BLI, antibody on anti-human IgG Fc sensors, Ara h 3 as analyte, top 16 nM
# [6] = target: T3, Ara h 3 (purified natural peanut …); test: BLI, antibody on anti-human IgG Fc sensors, Ara h 3 as analyte, top 64 nM
# [7] = target: T3, Ara h 3 (purified natural peanut …); test: BLI, antibody on anti-human IgG Fc sensors, Ara h 3 as analyte, top 32 nM
# [8] = target: T1, Ara h 1 (purified natural peanut …); test: indirect ELISA
# [9] = target: T3, Ara h 3 (purified natural peanut …); test: BLI, antibody on anti-human IgG Fc sensors, Ara h 3 as analyte, top 512 nM
# BSA [10] = target: T4, BSA; test: indirect ELISA, OD heat map; remark: listed apart in the source
# [11] = target: T2, purified recombinant allergen …; test: indirect ELISA (FIG. 19)
# T4 sequence (P02769 25-607 limits assumed): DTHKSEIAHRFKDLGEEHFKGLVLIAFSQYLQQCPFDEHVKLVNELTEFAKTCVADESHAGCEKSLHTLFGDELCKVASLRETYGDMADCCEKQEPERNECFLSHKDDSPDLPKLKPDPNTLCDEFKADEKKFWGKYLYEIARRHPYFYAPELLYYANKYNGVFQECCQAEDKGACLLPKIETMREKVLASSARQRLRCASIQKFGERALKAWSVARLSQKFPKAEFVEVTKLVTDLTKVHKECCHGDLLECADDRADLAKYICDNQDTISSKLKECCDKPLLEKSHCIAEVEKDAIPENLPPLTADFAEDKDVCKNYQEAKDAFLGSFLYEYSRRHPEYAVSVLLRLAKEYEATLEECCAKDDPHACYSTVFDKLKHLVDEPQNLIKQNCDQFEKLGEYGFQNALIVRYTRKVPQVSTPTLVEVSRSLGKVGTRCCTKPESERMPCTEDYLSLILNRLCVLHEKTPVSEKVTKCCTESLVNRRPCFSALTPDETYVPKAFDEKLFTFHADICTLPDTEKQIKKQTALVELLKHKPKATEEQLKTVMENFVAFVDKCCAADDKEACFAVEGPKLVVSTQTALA
binder,measurement,setting,value
"PA13P1H08 variant R-R (antibody, V domains shown, human IgG1, kappa; also called both chains reverted to the inferred naive rearrangement) VH: QVQLVESGGGVVQPGRSLRLSCAASGFTFSSYGMHWVRQAPGKGLEWVAVISYDGSNKYYADSVKGRFTISRDNSKNTLYLQMNSLRAEDTAVYYCAKVLDYSNYYYYYGMDVWGQGTTVTVSS VL: not shown",Kd,[1],> 100 nM
same,Kd,[2],> 100 nM
same,binding result,BSA [3],no binding (tested: 2 ng/µL)
same,binding result,[4],no binding (tested: 2 ng/µL)
"PA13P1H08 (antibody, human IgG1, V domains shown, human IgG1, kappa; also called Clone PA13P1H08; N-N) VH: QVQLVNSGGGVVQPGRSLRLSCVASGFTFSTFGIHWVRQAPGKGLEWVAVISNDGEKSESADSVKGRFTPSRDNSKNTVYLQMNNLRVEDTAVYYCAKVLDYSRYSYYYGMDVWGQGTTVIVSS VL: EIVLTQSPGTLSLSPGGRGTLSCRTSQTINNAHLAWYQHKPGQAPRLLIYGSSERATGVPDRFSGSGSGSDFTLTISSLEAEDFAVYYCQHYGRSPPYTFGPGTKLDIK",Kd,[5],0.3 nM
same,binding result,BSA [3],no binding (tested: 2 ng/µL)
"PA13P1H08 variant N-R (antibody, V domains shown, human IgG1, kappa; also called native heavy chain, reverted light chain) VH: QVQLVNSGGGVVQPGRSLRLSCVASGFTFSTFGIHWVRQAPGKGLEWVAVISNDGEKSESADSVKGRFTPSRDNSKNTVYLQMNNLRVEDTAVYYCAKVLDYSRYSYYYGMDVWGQGTTVIVSS VL: not shown",Kd,[6],7.4 nM
same,binding result,BSA [3],no binding (tested: 2 ng/µL)
same,binding result,[4],no binding (tested: 2 ng/µL)
"PA13P1H08 variant with native heavy chain and light chain swapped with another kappa light chain (antibody, human IgG1, V domains shown, human IgG1, kappa) VH: QVQLVNSGGGVVQPGRSLRLSCVASGFTFSTFGIHWVRQAPGKGLEWVAVISNDGEKSESADSVKGRFTPSRDNSKNTVYLQMNNLRVEDTAVYYCAKVLDYSRYSYYYGMDVWGQGTTVIVSS VL: EIVLTQSPATLSLSPGERATLSCRASQSVSSYLAWYQQKPGQAPRLLIYDASNRATGIPARFSGSGSGTDFTLTISSLEPEDFAVYYCQQRSNWPPGFTFGPGTKVDIK",binding result,BSA [3],no binding (tested: 2 ng/µL)
same,binding result,[4],no binding (tested: 2 ng/µL)
"PA13P1H08 variant R-N (antibody, human IgG1, V domains shown, human IgG1, kappa; also called reverted heavy chain, native light chain) VH: QVQLVESGGGVVQPGRSLRLSCAASGFTFSSYGMHWVRQAPGKGLEWVAVISYDGSNKYYADSVKGRFTISRDNSKNTLYLQMNSLRAEDTAVYYCAKVLDYSNYYYYYGMDVWGQGTTVTVSS VL: EIVLTQSPGTLSLSPGGRGTLSCRTSQTINNAHLAWYQHKPGQAPRLLIYGSSERATGVPDRFSGSGSGSDFTLTISSLEAEDFAVYYCQHYGRSPPYTFGPGTKLDIK",Kd,[7],0.89 nM
same,binding result,BSA [3],no binding (tested: 2 ng/µL)
"PA13P1H08 variant rFWRs-N (antibody, human IgG1, V domains shown, human IgG1, kappa; also called heavy chain framework regions reverted) VH: QVQLVESGGGVVQPGRSLRLSCAASGFTFSTFGMHWVRQAPGKGLEWVAVISNDGEKSYYADSVKGRFTISRDNSKNTLYLQMNSLRAEDTAVYYCAKVLDYSRYSYYYGMDVWGQGTTVTVSS VL: EIVLTQSPGTLSLSPGGRGTLSCRTSQTINNAHLAWYQHKPGQAPRLLIYGSSERATGVPDRFSGSGSGSDFTLTISSLEAEDFAVYYCQHYGRSPPYTFGPGTKLDIK",Kd,[7],3.2 nM
same,binding result,BSA [3],no binding (tested: 2 ng/µL)
"PA15P1D05 (antibody, human IgG1, V domains shown, human IgG1; also called CF3 IgE PB antibody) VH: QVHLVESGGGVVQPGRSLGLSCVASGFTFNYYAIHWVRQAPGKGLEWVAVVSFDGNIIYYADSVKGRFNISRDNSKNTVNLQMNSLRPDDTAVYYCVRDGEYCSGGNCYWGDFDHWGQGSLVTVSP VL: EIVLTQSPATLSLSPGERATLSCRASQSISSEYLTWFQQKPGQAPRLLIYGAFNRATGIPDRFSGSGSGTDFTLTISSLEPEDFAVYYCQQYANWWTFGQGTKVEIK",binding result,[8],no binding
same,Kd,[9],2 nM
"PA15P1D12 (antibody, human IgG1, V domains shown, human IgG1; also called CF3 IgG4 PB antibody) VH: QVHLVESGGGVVQPGRSLGLSCAASGFTFNYYAIHWVRQAPGKGLEWVAVVSFDGNIIYYADSVKGRFNISRDNSKNTVNLQMNSLRADDTAVYYCVRDGEYCSGGNCYWGDFDYWGQGTLVTVSP VL: EIVLTQSPGTLSLSPGERATLSCRASQSISSEYLTWFQQKPGQAPRLLIYGAFNRATGIPDRFSGSGSGTDFTLTISSLEPEDFAVYYCQQYANWWTFGQGTKVEIK",binding result,[8],no binding
same,Kd,[9],1.1 nM
"1003320107_F3 (antibody, V domains shown, also called Clone 1003320107_F3) VH: QVQLQESGPGLVKPSETLSLSCNVSGGSIRGHYWSWIRQSPGKRLEWLGYIYQSGYTKYNPSLKSRVSISLDTSKNKFSLNLKSVTTADTAVYYCAGRVAERGGDQFDFWGQGTLVTVSS VL: SYELTQSPSLSVSPGQTASITCSGENLGEKHASWYQQKSGQSPVLVIYQDTKRPAGIPERFSGSNSGSTATLTISGTQPMDEADYFCQAWDANTANVIFGGGTMLTVL",binding result,BSA [10],no binding (tested: 2 ng/µL)
same,binding result,[11],binds
"1003320107_C5 (antibody, V domains shown, also called Clone 1003320107_C5) VH: QVQLQESGLGLVKPSGTLSLTCAVSGGPMNSSYWWSWVRQSPGGGLEWIGQISHYTNTKYNPSFKNRVSISIDKSKNEFSLRLTYVTGADTGVYYCVGERDWKDPNWFDPWGQGRLVTVSS VL: QSVLTQPPSVSGAPGQRVTISCTGSNSNIGAGQDVHWYQHFPGTAPKLVIYGNSNRPSGVPDRFSGSKSGTSASLAISGLQADDEADYYCQSYDKSLSSSLFGGGTKLTVL",binding result,BSA [10],no binding (tested: 2 ng/µL)
same,binding result,[11],binds
